According to PMC8179448:
Where two headings read alike, the source gives them in different places. Values belong to the molecule of their own block, whether it stands above or below them.

Tests used:
[1] = molecular target: 14-3-3ζ (UniProt P63104); test: fluorescence polarisation
[2] = molecular target: 14-3-3ζ (UniProt P63104); test: fluorescence polarisation; remark: listed apart in the source
[3] = molecular target: 14-3-3ζ (UniProt P63104); test: fluorescence polarisation; remark: listed apart in the source
[4] = molecular target: 14-3-3ζ (UniProt P63104); test: ITC; details: for binding against the reference: reference: 240pi
[5] = molecular target: 14-3-3ζ (UniProt P63104); test: fluorescence polarisation titration, FAM-labelled peptides; details: for binding against the reference: reference: 240pi
[6] = molecular target: 14-3-3ζ (UniProt P63104); test: fluorescence polarisation; remark: listed apart in the source
[7] = molecular target: T1, 14-3-3ζ protein, P63104; test: native gel or EMSA + cross-linking + other: MALDI-TOF; details: remark: other sources report otherwise
T1 chain: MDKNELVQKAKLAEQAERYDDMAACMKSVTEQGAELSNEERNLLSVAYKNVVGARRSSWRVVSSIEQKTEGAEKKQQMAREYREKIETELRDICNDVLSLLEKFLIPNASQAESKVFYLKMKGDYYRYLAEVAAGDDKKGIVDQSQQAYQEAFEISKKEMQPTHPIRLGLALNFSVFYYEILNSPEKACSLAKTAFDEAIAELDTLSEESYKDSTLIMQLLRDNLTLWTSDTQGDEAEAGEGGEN

Molecule: FAM-labeled Rnd3 C-terminal peptide (207–241) 218_240pi (from UniProt P61587 207-241)
Kd [1]: 400 nM
ka,1 (two-step fit assuming pS218 binds first; rejected by the paper) [1]: 16.7 μM^−1 s^−1
ka,2 (second step of the two-step fit) [1]: 66.2 s⁻¹
ka,2 (two-step fit assuming pS218 binds first; rejected by the paper) [1]: 29.8 s^−1
kd,1 (two-step fit assuming pS218 binds first; rejected by the paper) [1]: 53.8 s^−1
kd,2 (two-step fit assuming pS218 binds first; rejected by the paper) [1]: 8.64 s^−1
koff [1]: 9.69 s⁻¹
ka,1 (first step of the two-step fit) [2]: 57.5 µM⁻¹ s⁻¹
ka,2 (second step of the two-step fit) [2]: 62.2 s⁻¹
kd,1 (first step of the two-step fit) [2]: 35.2 s⁻¹
kd,2 (second step of the two-step fit) [2]: 38.9 s⁻¹
koff [3]: 8.42 s⁻¹

Molecule: FAM-labeled Rnd3 C-terminal peptide (207–241) no_piFar (from UniProt P61587 207-241)
Ka [1]: 130000 M⁻¹

Molecule: Rnd3 C-terminal peptide (207–241) 240pi (from UniProt P61587 207-241)
dH [4]: -14.8 kJ/mol
stoichiometry N (peptide per 14-3-3ζ) [4]: 1

Molecule: FAM-labeled Rnd3 C-terminal peptide (207–241) 240pi (from UniProt P61587 207-241)
Ka [1]: 290000 M⁻¹
Kd [1]: 3390 nM
koff [1]: 63.9 s⁻¹
Kd [2]: 1490 nM
koff [2]: 44.2 s⁻¹
kon [2]: 2.96e+07 M⁻¹ s⁻¹

Molecule: Rnd3 207-241 (from UniProt P61587) 218_240pi
binding against the reference ([4]; sites S218): stronger

Molecule: Rnd3 C-terminal peptide (207–241) 210_240piFar (from UniProt P61587 207-241)
dH [4]: -30.8 kJ/mol
stoichiometry N (peptide per 14-3-3ζ) [4]: 0.5

Molecule: Rnd3 C-terminal peptide (207–241) 218_240pi (from UniProt P61587 207-241)
dH [4]: -26 kJ/mol
stoichiometry N (peptide per 14-3-3ζ) [4]: 0.5

Molecule: Rnd3 C-terminal peptide (207–241) all_piFar (from UniProt P61587 207-241)
dH [4]: -26.2 kJ/mol
stoichiometry N (peptide per 14-3-3ζ) [4]: 0.5

Molecule: Rnd3 207-241 (from UniProt P61587) 240piFar
other: association constant K ([5]; reference: no_piFar, sites S240): stronger; reference 0.13

Molecule: Rnd3 207-241 (from UniProt P61587) all_pi
binding against the reference ([5]; sites S210,S218): stronger
binding against the reference ([4]; sites S210,S218): stronger

The next lines start with the values.

dH [4]: -29.9 kJ/mol
stoichiometry N (peptide per 14-3-3ζ) [4]: 0.5
Molecule: Rnd3 C-terminal peptide (207–241) all_pi, triply phosphorylated (from UniProt P61587 207-241)

binding against the reference ([5]; sites S210): stronger
binding against the reference ([4]; sites S210): stronger
Molecule: Rnd3 207-241 (from UniProt P61587) 210_240pi

dH [4]: -14.9 kJ/mol
stoichiometry N (peptide per 14-3-3ζ) [4]: 1
Molecule: Rnd3 C-terminal peptide (207–241) 240piFar (from UniProt P61587 207-241)

dH [4]: 2.94 kJ/mol
Molecule: Rnd3 C-terminal peptide (207–241) no_piFar, farnesylated, without phosphate (from UniProt P61587 207-241)

koff [6]: 8.02 s⁻¹
Ka [1]: 3.13e+06 M⁻¹
Kd [1]: 320 nM
ka,1 (two-step fit assuming pS240 binds first; rejected by the paper) [1]: 31.1 μM^−1 s^−1
ka,2 (two-step fit assuming pS240 binds first; rejected by the paper) [1]: 60.2 s^−1
kd,1 (two-step fit assuming pS240 binds first; rejected by the paper) [1]: 13 s^−1
kd,2 (two-step fit assuming pS240 binds first; rejected by the paper) [1]: 345 s^−1
koff [1]: 10.9 s⁻¹
ka,1 (first step of the two-step fit) [2]: 39.2 µM⁻¹ s⁻¹
ka,2 (second step of the two-step fit) [2]: 25.6 s⁻¹
kd,1 (first step of the two-step fit) [2]: 19.9 s⁻¹
kd,2 (second step of the two-step fit) [2]: 54.5 s⁻¹
Molecule: FAM-labeled Rnd3 C-terminal peptide (207–241) 240piFar (from UniProt P61587 207-241)

dH [4]: -36.7 kJ/mol
stoichiometry N (peptide per 14-3-3ζ) [4]: 0.5
Molecule: Rnd3 C-terminal peptide (207–241) 210_240pi (from UniProt P61587 207-241)

dH [4]: -23.4 kJ/mol
stoichiometry N (peptide per 14-3-3ζ) [4]: 0.5
Molecule: Rnd3 C-terminal peptide (207–241) 218_240piFar (from UniProt P61587 207-241)

stoichiometry N [7]: 2
B1: 14-3-3ζ protein, P63104 1-245 (natural protein)
chain: T1 chain
